Assay results published in US20130041138A1, “ANTIBODIES THAT BIND TO PSCA PROTEINS FOR DIAGNOSIS OF CANCER” (priority 2003, published 2013).

B1: Ha1-5.99: fully human gamma 2 anti-PSCA monoclonal antibody from XenoMouse; ATCC PTA-6703; sequences FIG. 2E-2F (antibody, V domains shown)
VH: QVHLQQWGAGLLKPSETLSLTCAVYGGSFSGYYWSWIRQPPGKGLEWIGEINHSGSTSYKPSLKSRVTVSVDTSKNQFSLKLSYVTAADTAVYYCARDRGDYGDFLFDYWGQGTLVTVSSASTKGPSVFPLAPSSKST
VL: SPGERATLSCRASQSIGSTYLAWYQQKPGQAPRLLIYGASSRATGIPERFSGSGSGTDFTLTISGLEPEDFAVFYCQQCGSSPPTFGQGTKVEIKRTVAAPSVFIFPPSDEQLKSGTASVVCLLNNFYPREAKVQWKVDNA
B2: Ha1-4.37: fully human gamma 1 anti-PSCA monoclonal antibody from XenoMouse; ATCC PTA-6702; sequences FIG. 2P-2Q (antibody, V domains shown)
VH: CPGALQESGPGLVRPSQTLSLTCTVSGGSISSGGTYYWIWIRQHPGKGLEWIGYIYYSGSTYYNPSLKSRVTISVDTSKNQFSLKLSSVTAADTAVYYCARDGITMVRGISGGMDVWGQGTTVTVSSASTKGPSVKGPSVF
VL: ASVGDRVTITCRASQSISSHLNWYQQKPGKAPKLLIYAASSLQSGVPSRFSGSGSGTDFTLSISSLQPEDFATYFCQQSYSIPRTFGQGTKVEITRTVAAPSVFIFPPSDEQLKSGTASVVCLLNNFYPREAKVQWKVDNALQSG

What was measured:
[1] = target: T1, cell surface PSCA on PSCA-expressing cells (endogenous or recombinant) (Homo sapiens, UniProt O43653); experiment: PSCA human MAb screening by FACS; assay type: binding
T1 construct: host or cells: PSCA-expressing cells (endogenous or recombinant)
Method: FIGS. 9A and 9B. Screening for human PSCA antibodies by FACS. Antibody concentration from supernatants was determined by ELISA. 50 ul/well of (neat) was added to 96-well FACS plates and serially diluted. PSCA-expressing cells were added (endogenous or recombinant, 50,000 cells/well) and the mixture incubated at 4° C. for two hours. Following incubation, the cells were washed with FACS Buffer and further incubated with 100 ul of detection antibody (anti-hIgG-PE) for 45 minutes at 4° C. At the end of incubation, the cells were washed with FACS Buffer, fixed with formaldehyde and analyzed using FACScan. Data were analyzed using CellQuest Pro software. Solid histograms represent data from negative control cells and open histograms indicate data from PSCA-positive cells.
Primary hybridoma screening for MAbs to PSCA was performed by FACS. The protocol was as follows: 50 ul/well of hybridoma supernatant (neat) or purified antibodies (in serial dilutions) were added to 96-well FACS plates and mixed with PSCA-expressing cells (endogenous or recombinant, 50,000 cells/well). The mixture was incubated at 4° C. for two hours. At the end of incubation, the cells were washed with FACS Buffer and incubated with 100 ul of detection antibody (anti-hIgG-PE) for 45 minutes at 4° C. At the end of incubation, the cells were washed with FACS Buffer, fixed with Formaldehyde and analyzed using FACScan. Data were analyzed using CellQuest Pro software. Filled histograms indicate data from negative control cells, and open histograms represent data from PSCA-positive cells (FIG. 9).
Positive hybridomas identified from primary screens were transferred to 24-well plates and supernatants collected for confirmatory screens. Confirmatory screens included FACs analysis on B300.19-PSCA/300.19-neo, Rat1-PSCA/Rat1-neo, PC3-PSCA/neo, SW780 (bladder cancer cell line), LAPC9AI (prostate cancer cell line), HPAC (pancreatic cancer cell line), and ELISA assay using Tag5-PSCA, GST-PSCA, GST-PSCA N-term, Med. C-Term, and pET-PSCA.

[2] = tested on: B300.19-PSCA expressing cells; experiment: Complement mediated cytotoxicity; assay type: cell-based; settings: 0-50 μg/ml antibody, rabbit complement serum, 2 hr 37° C., Alamar Blue
Method: (§1) FIG. 14. Complement mediated cytotoxicity of PSCA Mabs. PSCA antibodies (0-50 μg/ml) were diluted with RHB buffer (RPMI 1640, Gibco Life Technologies, 20 mM HEPES). B300.19-PSCA expressing cells were washed in RHB buffer and resuspended at a density of 10^6 cells/ml. In a typical assay, 50 μl of PSCA antibody, 50 μl of diluted rabbit complement serum (Cedarlane, Ontario, Can), and 50 μl of a cell suspension were added together into a flat-bottom tissue culture 96-well plate. The mixture was incubated for 2 hr. at 37° C. in a 5% CO2 incubator to facilitate complement-mediated cell lysis. […] The fluorescence in each well was read using a 96-well fluorometer with excitation at 530 nm and emission at 590 nm.
as §1, with “PSCA” for “FIG. 14. Complement mediated cytotoxicity of PSCA”, “antibodies were evaluated to determine their ability to mediate immune dependent cytotoxicity.” for “Mabs.”, “plate.” for “plate. The mixture was incubated for 2 hr. at 37° C. in a 5% CO2 incubator to facilitate complement-mediated cell lysis.”

[3] = tested on: LAPC-9AI androgen-independent human prostate cancer xenografts; experiment: Established subcutaneous LAPC-9AI prostate cancer xenograft; assay type: in vivo, SCID mice; settings: treatment from tumor volume 50 mm3, i.p. twice weekly, 5 doses until day 14; p<0.05
Method: FIG. 19. PSCA MAb Ha1-5.99 Inhibits the Growth of Established Prostate Cancer Xenografts in SCID mice. LAPC-9AI tumor cells (2.0×10^6 cells) were injected subcutaneously into male SCID mice. When tumor volume reached 50 mm3, the mice were randomized into groups (n=10 in each group) and treatment initiated intraperitoneally (i.p.) with HA1-5.99.1 or isotype MAb control as indicated. Animals were treated twice weekly for a total of 5 doses until study day 14. Tumor growth was monitored using caliper measurements every 3 to 4 days as indicated.
In another experiment, LAPC-9AI tumor cells (2.0×10^6 cells) were injected subcutaneously into male SCID mice. When tumor volume reached 50 mm3, the mice were randomized into groups (n=10 in each group) and treatment initiated intraperitoneally (i.p.) with HA1-5.99.1 or isotype MAb control as indicated Animals were treated twice weekly for a total of 5 doses until study day 14. Tumor growth was monitored using caliper measurements every 3 to 4 days as indicated. […] (FIG. 19).

[4] = tested on: SW780 human bladder tumors; experiment: Subcutaneous SW780 bladder tumor xenograft; assay type: in vivo, ICR SCID mice; settings: 250 mg/mouse i.p. two times a week, 7 doses, from day of injection; t test
Method: (§2) FIG. 27. Human PSCA MAbs Inhibit the Growth of SW780 Bladder Tumors in SCID Mice. Human SW780 bladder cancer cells (2×10^6/mouse) were injected subcutaneously into immunodeficient ICR SCID mice (Taconic Farm, Germantown, N.Y.). The mice were randomized into groups (n=10 animals/group) and treatment with the indicated human PSCA MAb initiated the same day. Antibodies (250 mg/mouse) were delivered intraperitoneally two times a week for a total of 7 doses. […] Statistical analyses were performed using at test (two-sided, α=0.05).
as §2, with “In another experiment,” for “FIG. 27. Human PSCA MAbs Inhibit the Growth of SW780 Bladder Tumors in SCID Mice.”, “α=0.05) (FIG. 27).” for “α=0.05).”

Row | Molecule | react and bind with cell surface or immobilized PSCA [1] | binding to endogenous cell surface PSCA ([1]; PSCA expressed in prostate cancer xenograft cells) | complement dependent lysis of target cells [2] | inhibition of growth of established subcutaneous tumors [3] | inhibition of subcutaneous tumor growth [4]
1 | B1 | react and bind with cell surface or immobilized PSCA | bind endogenous cell surface PSCA | able to mediate complement dependent lysis | significantly inhibited the growth | significantly inhibited the growth
2 | B2 | react and bind with cell surface or immobilized PSCA | – | – | – | significantly inhibited the growth
